Assay results taken from the Immune Epitope Database (IEDB).

Assays:
[1] = target: HLA-B*44:03; assay: IEDB peptide-MHC binding, purified MHC/competitive/radioactivity; filed as Kd, often an IC50 or EC50 that approximates it; ≥ and ≤ were set here for values at or beyond the usual limits of such assays
[2] = target: HLA-B*18:01; assay: as above
[3] = target: HLA-B*40:01; assay: as above
[4] = target: HLA-B*40:02; assay: as above
[5] = target: HLA-B*45:01; assay: as above
[6] = target: HLA-B*44:02; assay: as above
[7] = target: HLA-B*48:01; assay: IEDB peptide-MHC binding, purified MHC/direct/fluorescence; filed as Kd, often an IC50 or EC50 that approximates it; ≥ and ≤ were set here for values at or beyond the usual limits of such assays
[8] = target: HLA-B*57:01; assay: IEDB peptide-MHC binding, purified MHC/competitive/radioactivity; filed as Kd, often an IC50 or EC50 that approximates it; ≥ and ≤ were set here for values at or beyond the usual limits of such assays
[9] = target: HLA-B*53:01; assay: as above; conditions: source organism: Dengue virus 4 Philippines/H241/1956
[10] = target: HLA-B*57:01; assay: IEDB peptide-MHC binding, purified MHC/direct/fluorescence; filed as Kd, often an IC50 or EC50 that approximates it; ≥ and ≤ were set here for values at or beyond the usual limits of such assays
[11] = target: HLA-A*69:01; assay: as above
[12] = target: HLA-A*01:01; assay: as above
[13] = target: HLA-B*08:01; assay: as above; conditions: source organism: Mammarenavirus brazilense
[14] = target: HLA-B*15:01; assay: as above
[15] = target: HLA-B*07:02; assay: as above
[16] = target: HLA-A*02:01; assay: as above
[17] = target: HLA-B*46:01; assay: as above
[18] = target: HLA-A*31:01; assay: as above
[19] = target: HLA-B*58:01; assay: as above
[20] = target: HLA-B*27:05; assay: as above
[21] = target: HLA-A*03:01; assay: as above
[22] = target: HLA-A*11:01; assay: as above
[23] = target: HLA-B*44:02; assay: as above
[24] = target: HLA-A*26:01; assay: as above
[25] = target: HLA-A*01:01; assay: IEDB peptide-MHC binding, purified MHC/competitive/radioactivity; filed as Kd, often an IC50 or EC50 that approximates it; ≥ and ≤ were set here for values at or beyond the usual limits of such assays
[26] = target: HLA-A*26:01; assay: as above; conditions: source organism: Dengue virus 2 Jamaica/1409/1983
[27] = target: HLA-A*26:01; assay: IEDB peptide-MHC binding, purified MHC/competitive/fluorescence; filed as Kd, often an IC50 or EC50 that approximates it; ≥ and ≤ were set here for values at or beyond the usual limits of such assays
[28] = target: HLA-B*46:01; assay: as above
[29] = target: HLA-B*15:01; assay: as above
[30] = target: HLA-A*02:01; assay: as above; conditions: source organism: Salmonella enterica subsp. enterica serovar Typhi
[31] = target: HLA-B*18:01; assay: IEDB peptide-MHC binding, purified MHC/direct/fluorescence; filed as Kd, often an IC50 or EC50 that approximates it; ≥ and ≤ were set here for values at or beyond the usual limits of such assays
[32] = target: HLA-B*40:01; assay: as above
[33] = source organism: Lymphocytic choriomeningitis virus (strain Armstrong)
[34] = source organism: SARS coronavirus Tor2
[35] = source organism: Dengue virus 4 Philippines/H241/1956
[36] = source organism: Mammarenavirus brazilense
[37] = source organism: Dengue virus 2 Jamaica/1409/1983
[38] = source organism: Bacillus anthracis str. A0488
[39] = source organism: Bacillus cereus G9241
[40] = source organism: Mammarenavirus machupoense
[41] = source organism: Yellow fever virus
[42] = source organism: Dengue virus 3 Martinique/1243/1999
[43] = source organism: West Nile virus
[44] = source organism: Salmonella enterica

ADSDDILTL
Kd [1, 33]: 6.06 µM | Kd [2, 33]: ≥ 77.5 µM | Kd [3, 33]: ≥ 26.9 µM | Kd [4, 33]: ≥ 22.2 µM | Kd [5, 33]: ≥ 77.7 µM | Kd [6, 33]: ≥ 20.8 µM

AEFNEDGLL
Kd ([7]; source organism: Listeria monocytogenes serotype 4b str. H7858): ≥ 20 µM

AEIVDTVSAL
Kd [1, 34]: 0.105 µM | Kd [2, 34]: ≥ 23.1 µM | Kd [3, 34]: 0.00114 µM | Kd [4, 34]: 2.57 µM | Kd [5, 34]: 0.287 µM | Kd [6, 34]: 0.0864 µM

EAVNDSRFW
Kd [8, 35]: 1.26 µM | Kd [9]: 0.0132 µM

EEAIRHVRAW
Kd [1, 34]: 0.0142 µM | Kd [2, 34]: ≥ 43.1 µM | Kd [3, 34]: ≥ 69.6 µM | Kd [4, 34]: ≥ 70.8 µM | Kd [5, 34]: 4.77 µM | Kd [6, 34]: 0.0073 µM

EEHFVETVSL
Kd [1, 34]: 0.143 µM | Kd [2, 34]: 1.04 µM | Kd [3, 34]: 0.0092 µM | Kd [4, 34]: 0.0843 µM | Kd [5, 34]: 0.116 µM | Kd [6, 34]: 0.44 µM

EETFKLSYGI
Kd [1, 34]: 0.13 µM | Kd [2, 34]: 19.7 µM | Kd [3, 34]: 3.58 µM | Kd [4, 34]: 0.194 µM | Kd [5, 34]: 2.54 µM | Kd [6, 34]: 0.076 µM

EFKSRFFVM
Kd [10, 36]: ≥ 20 µM | Kd [11, 36]: ≥ 20 µM | Kd [12, 36]: ≥ 20 µM | Kd [13]: 0.364 µM | Kd [14, 36]: ≥ 20 µM | Kd [15, 36]: ≥ 20 µM | Kd [7, 36]: ≥ 20 µM | Kd [16, 36]: ≥ 20 µM | Kd [17, 36]: ≥ 20 µM | Kd [18, 36]: ≥ 20 µM | Kd [19, 36]: ≥ 20 µM | Kd [20, 36]: ≥ 20 µM | Kd [21, 36]: ≥ 20 µM | Kd [22, 36]: ≥ 20 µM | Kd [23, 36]: ≥ 20 µM

ESFDLAGLF
Kd ([24]; source organism: Mammarenavirus juninense): 0.0013 µM

ETSWHYDQDH
Kd [8, 37]: 2.31 µM | Kd [25, 37]: ≥ 70.4 µM | Kd [26]: ≥ 40.9 µM

GMNEVTKAL
Kd ([7]; source organism: Giardia lamblia ATCC 50803): 0.359 µM

HECFVKRVDW
Kd [1, 34]: 0.187 µM | Kd [2, 34]: 6.62 µM | Kd [3, 34]: ≥ 69.6 µM | Kd [4, 34]: 5.78 µM | Kd [5, 34]: ≥ 33.8 µM | Kd [6, 34]: 0.302 µM

HEDLMAAYV
Kd [1, 34]: 5.06 µM | Kd [2, 34]: 3.91 µM | Kd [3, 34]: 1.2 µM | Kd [4, 34]: 1.33 µM | Kd [5, 34]: 1.69 µM | Kd [6, 34]: 7.08 µM

HIVYAVPLM
Kd [27, 38]: 0.0082 µM

IAFCNWAFV
Kd ([11]; source organism: Vibrio cholerae): 0.06 µM | Kd ([28]; source organism: Vibrio cholerae 2740-80): 4.36 µM

IDYVPLKSAT
Kd [1, 34]: ≥ 70.1 µM | Kd [2, 34]: ≥ 70.5 µM | Kd [3, 34]: ≥ 69.6 µM | Kd [4, 34]: ≥ 50.6 µM | Kd [5, 34]: 2.05 µM | Kd [6, 34]: ≥ 40 µM

ISRDIMDAY
Kd [28, 39]: 0.0416 µM

KDMPGGYCL
Kd [1, 40]: ≥ 78.1 µM | Kd [2, 40]: ≥ 38.9 µM | Kd [3, 40]: 17.7 µM | Kd [4, 40]: 0.235 µM | Kd [5, 40]: 18.2 µM | Kd [6, 40]: ≥ 42.5 µM

KDYMSLSEQL
Kd [1, 34]: ≥ 29.6 µM | Kd [2, 34]: ≥ 70.5 µM | Kd [3, 34]: 6.19 µM | Kd [4, 34]: 5.78 µM | Kd [6, 34]: ≥ 25.6 µM

KELSPRWYF
Kd [1, 34]: 0.0528 µM | Kd [2, 34]: 1.88 µM | Kd [3, 34]: 0.889 µM | Kd [4, 34]: 0.0073 µM | Kd [5, 34]: 6.01 µM | Kd [6, 34]: 0.0634 µM

KETLYRIDG
Kd [1, 34]: ≥ 30.6 µM | Kd [2, 34]: ≥ 77.5 µM | Kd [3, 34]: ≥ 46 µM | Kd [4, 34]: ≥ 45.6 µM | Kd [5, 34]: ≥ 24 µM | Kd [6, 34]: ≥ 57.7 µM

KQSSFLSSL
Kd ([29]; source organism: Salmonella enterica subsp. enterica serovar Typhi): 0.0941 µM | Kd [30]: 0.0381 µM

LTVVPLMAF
Kd [29, 39]: 0.147 µM

NDLQFGFGW
Kd [1, 33]: 0.038 µM | Kd [2, 33]: 1.8 µM | Kd [3, 33]: ≥ 37.8 µM | Kd [4, 33]: 10.3 µM | Kd [5, 33]: ≥ 77.7 µM | Kd [6, 33]: 0.295 µM

NDNFLMSNV
Kd [1, 40]: 19.6 µM | Kd [2, 40]: ≥ 43.6 µM | Kd [3, 40]: ≥ 27.6 µM | Kd [4, 40]: 2.99 µM | Kd [5, 40]: ≥ 10 µM | Kd [6, 40]: 13.1 µM

NELSLALGL
Kd [1, 34]: 0.0285 µM | Kd [2, 34]: 0.0909 µM | Kd [3, 34]: 0.277 µM | Kd [4, 34]: 0.154 µM | Kd [5, 34]: 5.85 µM | Kd [6, 34]: 0.409 µM

NTARLMAGA
Kd ([24]; source organism: Mycobacterium tuberculosis): ≥ 20 µM

PASIAARGYI
Kd [8, 37]: 0.365 µM

RFSTSLLFLN
Kd [8, 35]: 1.09 µM

RTSKKRSWPL
Kd [8, 37]: 0.69 µM

SIIGILHLI
Kd ([27]; source organism: Influenza A virus (A/Memphis/1/1978(H1N1))): 13 µM

SSARYDVAL
Kd [10, 41]: ≥ 20 µM | Kd [12, 41]: ≥ 20 µM | Kd [31, 41]: ≥ 20 µM | Kd ([15]; source organism: Yellow fever virus 17D): ≥ 20 µM | Kd [16, 41]: ≥ 20 µM | Kd [17, 41]: ≥ 20 µM | Kd [18, 41]: ≥ 20 µM | Kd [19, 41]: ≥ 20 µM | Kd [20, 41]: ≥ 20 µM | Kd [21, 41]: ≥ 20 µM | Kd [22, 41]: ≥ 20 µM | Kd [23, 41]: ≥ 20 µM

SSSMRKTDWL
Kd [8, 42]: 3.14 µM | Kd [25, 42]: ≥ 49.7 µM

STSQETWNRQ
Kd ([8]; source organism: Dengue virus 1 Brazil/97-11/1997): 0.943 µM

TRAVGKPLL
Kd [10, 43]: ≥ 20 µM | Kd [11, 43]: ≥ 20 µM | Kd [31, 43]: ≥ 20 µM | Kd [32, 43]: ≥ 20 µM | Kd [14, 43]: ≥ 20 µM | Kd [15, 43]: ≥ 20 µM | Kd [7, 43]: ≥ 20 µM | Kd [16, 43]: ≥ 20 µM | Kd [17, 43]: ≥ 20 µM | Kd [19, 43]: ≥ 20 µM | Kd [20, 43]: ≥ 20 µM | Kd [21, 43]: ≥ 20 µM | Kd [23, 43]: ≥ 20 µM

VLNGAPYSY
Kd [29, 38]: 0.0536 µM

YPVWLTKHL
Kd [31, 44]: 2.15 µM | Kd [32, 44]: 2.93 µM
